{"source": "paper PMC7775388", "biological_target": "full-length SARS-CoV-2 spike protein (residues 13-1273 of UniProtKB P0DTC2) fused to green fluoresce (SARS-CoV-2) (UniProt P0DTC2)", "assay": "flow cytometry on cells", "data": [{"substance": "recombinant ACE2-Fc fusion protein (residue Gln18-Ser760 fused to human Fc)", "values": [{"measurement": "Kd", "result": 10.9, "unit": "nM"}]}]}
